One substance from publication PMC5296908 can be followed below.

pKd: −log10 of the molar value.

The target in the experiment is ADAMTS17-PCD (human). Briefly: SPR; ADAMTS17-PCD (3300 RU) or ADAMTS17-AD (2530 RU) amine-coupled to a CM5 chip, BIAcore 3000; analytes flowed at 20 μl/min; 25 °C; TBS with 2 mM CaCl2 and 0.005% SP20; 1:1 stoichiometry assumed. A general note: In SPR one partner is held on a chip, and binding of the other changes the refractive index at the surface.

As to ADAMTS17-PCD (domain or fragment), the pKd (commonly −log10 of the Kd, conventionally taken in molar units) is 5.85.
